Results on one molecule are retold here after US20240197828A1, “Chimeric molecule to treat sepsis and other inflammatory conditions” (THE FEINSTEIN INSTITUTES FOR MEDICAL RESEARCH, priority 2022, published 2024).

The test concerns the target T1, rhCIRP (Homo sapiens, UniProt Q14011).
T1 sequence (Q14011 1-172): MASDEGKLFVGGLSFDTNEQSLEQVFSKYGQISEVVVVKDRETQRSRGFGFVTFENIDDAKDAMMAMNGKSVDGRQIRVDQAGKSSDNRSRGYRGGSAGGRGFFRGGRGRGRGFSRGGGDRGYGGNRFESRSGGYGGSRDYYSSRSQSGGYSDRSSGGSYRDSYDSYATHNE
The test is described as follows: Biacore binding of recombinant human proteins (rhCIRP and rhMFG-E8). The following applies: read-out: KD between rhCIRP and rhMFG-E8. On the technique in general: SPR reads the build-up and loss of mass on a sensor chip optically.

Usually Kd stands for the free concentration of one partner at which half of the binding sites on the other are occupied at equilibrium, for simple one-to-one binding.

B1: rhMFG-E8: recombinant human MFG-E8 (protein)
chain: LDICSKNPCHNGGLCEEISQEVRGDVFPSYTCTCLKGYAGNHCETKCVEPLGLENGNIANSQIAASSVRVTFLGLQHWVPELARLNRAGMVNAWTPSSNDDNPWIQVNLLRRMWVTGVVTQGASRLASHEYLKAFKVAYSLNGHEFDFIHDVNKKHKEFVGNWNKNAVHVNLFETPVEAQYVRLYPTSCHTACTLRFELLGCELNGCANPLGLKNNSIPDKQITASSSYKTWGLHLFSWNPSYARLDKQGNFNAWVAGSYGNDQWLQVDLGSSKEVTGIITQGARNFGSVQFVASYKVAYSNDSANWTEYQDPRTGSSKIFPGNWDNHSHKKNLFETPILARYVRILPVAWHNRIALRLELLGC
In the case of B1, the Kd turned out to be 29 nM.
